According to US20240101959A1, “USE OF IL-2R-BETA-GAMMA AGONIST PEPTIDES IN CELL MANUFACTURING” (MEDIKINE, INC., priority 2022, published 2024):
Positions of bridges follow the written chain, without caps; N, C: chain ends. No end group written: not given here.

Molecular target: T1, hu-IL-2Rβ subunit (human, UniProt P14784 27-240, limits assumed)
T1 construct: also called human interleukin-2 receptor subunit β; CD122
T1 sequence (looked up): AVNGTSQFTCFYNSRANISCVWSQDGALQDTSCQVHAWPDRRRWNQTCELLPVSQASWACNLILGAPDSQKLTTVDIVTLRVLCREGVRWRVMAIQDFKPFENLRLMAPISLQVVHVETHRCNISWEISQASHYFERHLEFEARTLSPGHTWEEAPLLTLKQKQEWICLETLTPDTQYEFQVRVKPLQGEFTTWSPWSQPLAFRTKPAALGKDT
Experiment: phage ELISA competition assay

IC50, < 100 µM:
LSSKGWYPCWKARLGDLCDLE (disulfide 9-18 (inferred)) [SEQ ID NO 404]
EQRNRQWWPCWLARLGDLCDLD [SEQ ID NO 360]
WYPCWMAQLGELCDLDEAPVQP [SEQ ID NO 371]
WYPCSIALLGELCDLESVHEKS (disulfide 4-13 (inferred)) [SEQ ID NO 359]
QGTKWHWNPCWMAQLGELCDLD [SEQ ID NO 381]
WLPCWRAQLGQLCDLD [SEQ ID NO 385]
SATWYPCFLANLGELCDLEQEN [SEQ ID NO 373]
RWTQAQWYPCWLAQLGELCDLE [SEQ ID NO 402]
RPSWAPCWLAQVGELCDLDHPE (disulfide 7-16 (inferred)) [SEQ ID NO 363]
WKPCWMALLGELCDLE [SEQ ID NO 397]
WWPCSIARLGQLCDLD [SEQ ID NO 394]
LHAGRWNPCWLAQLGELCDLE [SEQ ID NO 403]
YWCWFARVGELCDLDDGGVPS [SEQ ID NO 355]
WYPCWLAKLGELCDLDRAEALP [SEQ ID NO 347]
RSGDKAFFPCWLAQLGDLCDLD [SEQ ID NO 375]
WYSCWIAQIGELCDLE [SEQ ID NO 356]
WLPCWMAHLGDLCDLE [SEQ ID NO 362]
QVMRLWYPCWMAQLGELCDLE [SEQ ID NO 370]
WYPCSIASLGELCDLE [SEQ ID NO 390]
WLPCWMAHLGQLCDLDLPGKSM [SEQ ID NO 96]
RYPCWRAKLGELCDLD [SEQ ID NO 398]
RKHFYPCWMAQLGELCDLEGMP [SEQ ID NO 99]
MYPCWIAHLGELCDLD [SEQ ID NO 389]
EGVFFPCWIARLGELCDLDHGL [SEQ ID NO 97]
WYPCWLASLGEVCDLE [SEQ ID NO 393]
KNGPKSWYPCWMAQVGDLCDLD [SEQ ID NO 382]
DIGYYPCWMAQVGDLCDLDDEK [SEQ ID NO 100]
RRWLPCWMAHVGELCDLELGN [SEQ ID NO 354]
RDIWWPCWVAQLGELCDLDDPQ [SEQ ID NO 372]
WHPCWMARLGELCDLD [SEQ ID NO 380]
EEQSRGFLPCWMALLGELCDLD [SEQ ID NO 399]
TESWYPCWLANLGDLCDLEWSA [SEQ ID NO 378]
WLPCYMAQLGDLCDLE [SEQ ID NO 391]
MNPVGTFYPCWIAKLGELCDLQ [SEQ ID NO 357]
YAEWYPCWMARVGEVCDLEVTP [SEQ ID NO 374]
SHLWFPCWMAQLGELCDLEGGP [SEQ ID NO 353]
SRSAGEYYPCWLAQLGELCDLA [SEQ ID NO 367]
ETLGSVWYPCWIASIGELCDLD [SEQ ID NO 349]
RQVPKQWYPCWMAALGELCDLE [SEQ ID NO 368]
WYSCWIAQLGELCDLDDMGDRV (disulfide 4-13 (inferred)) [SEQ ID NO 350]
LGSKRQWYPCWVAHLGELCDLE [SEQ ID NO 400]
WLPCWIARLGDLCDLE [SEQ ID NO 80]
WLPCWMADVGDLCDLD [SEQ ID NO 379]
FGAFYPCWKAQLGELCDLEPVT [SEQ ID NO 345]
ESEGRGWYPCWNALLGELCDLE (disulfide 10-19 (inferred)) [SEQ ID NO 401]
LFPCWLAQLGELCDLE [SEQ ID NO 386]
GERWKPCWIAQLGELCDLDFNW [SEQ ID NO 102]
RVSYPCWLARLGELCDMDLEE [SEQ ID NO 377]
TGRWKPCWMAGLHELCDLEGFR [SEQ ID NO 98]
VWFPCWFAQLGDLCDLDQDP [SEQ ID NO 348]
DMFTHRWYPCSMAKLGELCDLE [SEQ ID NO 405]
RWPWYPCEIARIGELCDLEQAN [SEQ ID NO 344]
SGTGPAWYPCFLASLGQLCDLE [SEQ ID NO 383]
WHPCWLARVGDLCDLD [SEQ ID NO 366]
ESKEPAFWPCWMAQLGDLCDLE [SEQ ID NO 364]
HGGVIGWYPCWMAKVGELCDLD (disulfide 10-19 (inferred)) [SEQ ID NO 358]
WYPCWLAQLGELCDAE [SEQ ID NO 396]
DSDWWPCWMAQLGELCDLEDAR [SEQ ID NO 101]
HGRWFPCWMAQVGDLCDLEHSN [SEQ ID NO 346]
RSLRESWFPCWMAKLGDLCDLE [SEQ ID NO 365]
WFPCWLAQLGELCDKE [SEQ ID NO 351]
